Values belong to the binder of their own block, whether it stands above or below them.
What was measured:
[1] = target: T1, Cynomolgus monkey PD-1 expressed on CHO-K1 cells (CHO-K1/cyno PD-1) (cynomolgus monkey, UniProt B0LAJ3 25-288); test: FACS, CHO-K1/cyno PD-1 cells
T1 construct: also called CHO-K1 cells overexpressing cynomolgus monkey PD-1
Procedure: (§1) In order to investigate the in vitro binding activity of the PD-1 antigen-binding proteins to human/cynomolgus monkey PD-1, the binding assay at the cellular level was performed using a CHO-K1 cell strain overexpressing human or cynomolgus monkey PD-1 (CHO-K1/hPD-1 or CHO-K1/cyno PD-1, from GenScript). Briefly, the CHO-K1-hPD-1 cells were digested and resuspended in an F-12K complete medium, and the cell density was adjusted to 1×10⁶ cells/mL. The cells were seeded in a 96-well V-bottom plate (Corning, Cat#3894) at 100 μL/well, followed by the addition of the test antigen-binding proteins with concentrations 2-fold of final concentrations obtained by 5-fold gradient dilution were each added at 100 μL/well. The mixtures were well mixed. The maximum final concentration of the antigen-binding proteins was 100 nM or 300 nM. A total of 8-11 concentrations were set. hIgG was used as a control. The cells were incubated at 4° C. for 1 h away from light. Thereafter, the cells in each well were rinsed twice with 100 μL of pre-cooled PBS, and centrifuged at 500 g at 4° C. for 5 min, and then the supernatant was discarded. Then 100 μL of a fluorescent secondary antibody (goat anti-human IgG (H+L) secondary antibody, Alexa Fluor® 488 conjugate, Invitrogen, Cat #A11013, 1:1000) was added to each well. The plate was incubated away from light at 4° C. for 30 min. The cells in each well were rinsed twice with 200 μL of pre-cooled PBS, and centrifuged at 500 g at 4° C. for 5 min, and then the supernatant was discarded. Finally, the cells in each well were resuspended in 200 μL of pre-cooled PBS, and the fluorescence signal values were read using a BD FACS CANTOII.

[2] = target: T2, Cynomolgus monkey PD-1-His protein (AcroBiosystems, # PD1-05223) (cynomolgus monkey, UniProt B0LAJ3 25-170); test: ELISA, plate-coated cynomolgus monkey PD-1-His
T2 construct: Bought reagent, coated on the ELISA plate; also called cynomolgus monkey PD-1 protein
T2 sequence (B0LAJ3 entry or part of it limits assumed): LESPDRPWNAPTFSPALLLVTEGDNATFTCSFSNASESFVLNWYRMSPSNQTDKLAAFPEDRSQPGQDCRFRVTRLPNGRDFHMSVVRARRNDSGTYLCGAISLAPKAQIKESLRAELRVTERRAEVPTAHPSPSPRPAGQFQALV
Procedure: Cynomolgus monkey PD-1-His protein (AcroBiosystems, # PD1-05223) was diluted to 2 μg/mL with PBS, added to a 96-well plate (Corning, #9018) at 100 μL/well, and incubated at 4° C. overnight. After the liquid was discarded, the plate was washed 3 times with PBST, blocked by adding 250 μL of 2% BSA, and incubated at room temperature for 1 h. The blocking buffer was discarded, and the plate was washed 3 times with PBST buffer (pH 7.4, containing 0.05% Tween-20). The test antigen-binding protein was diluted to 5 μg/mL, and added at 100 μL/well. The plate was incubated at 37° C. for 1 h. After the plate was washed 3 times with PBST buffer (pH 7.4, containing 0.05% Tween-20), a 4000-fold diluted goat anti-human HRP secondary antibody (Invitrogen, #A18805) was added. The plate was incubated at 37° C. for 1 h. After the plate was washed, TMB (Biopanda, # TMB-S-003) was added at 100 μL/well. The plate was left away from light at room temperature for 5 min. The reactions were terminated by adding 50 μL of stop buffer (BBI life sciences, #E661006-0200) to each well, and the absorbance values at 450 nm (OD450) were measured using a microplate reader (PerkinElemer, #Enspire).

[3] = target: T3, Human PD-1 expressed on CHO-K1 cells (CHO-K1/hPD-1) (human, UniProt Q15116 25-288); test: FACS, CHO-K1/hPD-1 cells
T3 construct: whole, on cells; also called CHO-K1 cells overexpressing human PD-1
T3 sequence (Q15116 25-288): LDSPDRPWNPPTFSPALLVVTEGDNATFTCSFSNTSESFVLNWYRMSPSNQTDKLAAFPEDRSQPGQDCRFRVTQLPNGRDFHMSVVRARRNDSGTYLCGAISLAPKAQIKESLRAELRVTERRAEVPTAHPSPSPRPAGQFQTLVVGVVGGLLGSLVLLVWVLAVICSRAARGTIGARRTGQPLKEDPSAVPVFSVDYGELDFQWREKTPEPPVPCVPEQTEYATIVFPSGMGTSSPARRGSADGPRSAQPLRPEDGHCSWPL
Procedure: as §1

[4] = target: T4, Human PD-1-His protein (ACROBiosystems, # PD1-H5221) (human, UniProt Q15116 25-167); test: ELISA, plate-coated human PD-1-His
T4 construct: Bought reagent, coated on the ELISA plate; also called human PD-1 protein; human PD-1 antigen; not shown: His tag
T4 sequence (Q15116 25-167 limits assumed): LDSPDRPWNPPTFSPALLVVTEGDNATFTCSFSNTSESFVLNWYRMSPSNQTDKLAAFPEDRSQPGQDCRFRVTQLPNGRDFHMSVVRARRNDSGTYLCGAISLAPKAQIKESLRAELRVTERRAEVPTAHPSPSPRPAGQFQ
Procedure: Human PD-1-His protein (ACROBiosystems, # PD1-H5221) was diluted to 2 μg/mL with PBS, added to a 96-well plate (Corning, cat#9018) at 100 μL/well, and incubated at 4° C. overnight. After the liquid was discarded, the plate was washed 3 times with PBST buffer (pH 7.4, containing 0.05% Tween-20), and 250 μL of 2% BSA blocking buffer was added. The plate was incubated at 37° C. for 1 h. The blocking buffer was discarded, and the plate was washed 3 times with PBST buffer (pH 7.4, containing 0.05% Tween-20). The test antigen-binding protein was 5-fold diluted in sequence at an initial concentration of 100 nM for a total of 8-10 concentration gradients, and added at 100 μL/well. The plate was incubated at 37° C. for 1 h. An isotype antibody was taken as a control. After the plate was washed 3 times with PBST buffer (pH 7.4, containing 0.05% Tween-20), a 4000-fold diluted goat anti-human HRP secondary antibody (Invitrogen, #A18805) was added. The plate was incubated away from light at 37° C. for 1 h. After the plate was washed 3 times with PBST buffer (pH 7.4, containing 0.05% Tween-20), TMB (Biopanda, # TMB-S-003) was added at 100 μL/well. The plate was left away from light at room temperature for about 5 min. The reactions were terminated by adding 50 μL of stop buffer (BBI life sciences, #E661006-0200) to each well, and the absorbance values at 450 nm (OD450) were measured using a microplate reader (PerkinElemer, #Enspire). The half maximal effective concentration (EC₅₀) was calculated from the measurement results.

[5] = target: T3, Human PD-1 expressed on CHO-K1 cells …; test: FACS blocking of biotin-labeled human PD-L1 binding to CHO-K1-hPD-1 cells
Procedure: Briefly, the CHO-K1-hPD-1 cells were digested and resuspended in an F-12K complete medium, and the cell density was adjusted to 1×10⁶ cells/mL. The cells were seeded in a 96-well V-bottom plate (Corning, Cat#3894) at 100 μL/well, followed by the addition of the test antigen-binding proteins with concentrations 2-fold of final concentrations obtained by 3-fold or 5-fold gradient dilution were each added at 100 μL/well. The mixtures were well mixed. The maximum final concentration of the antigen-binding proteins was 100 nM or 300 nM. A total of 8 concentrations were set. hIgG was used as a control. The cells were incubated at 4° C. for 1 h away from light. […] The cells were incubated at 4° C. away from light for 30 min. The cells in each well were rinsed twice with 100 μL of pre-cooled PBS, and centrifuged at 500 g at 4° C. for 5 min, and then the supernatant was discarded. A fluorescent secondary antibody (PE Streptavidin, BD, Cat# 554061, 1:200) was added at 100 μL/well, and the cells were incubated at 4° C. away from light for 30 min. The cells in each well were rinsed twice with 200 μL of pre-cooled PBS, and centrifuged at 500 g at 4° C. for 5 min, and then the supernatant was discarded. Finally, the cells in each well were resuspended in 200 μL of pre-cooled PBS, the fluorescence signal values were read using a BD FACS CANTOII, and the IC₅₀ values were calculated.

[6] = target: T5, Human CD73 expressed on CHO-K1 cells (CHO-K1-hCD73) (human, UniProt P21589 27-549); test: FACS, CHO-K1-hCD73 cells
T5 construct: whole, on cells
T5 sequence (looked up): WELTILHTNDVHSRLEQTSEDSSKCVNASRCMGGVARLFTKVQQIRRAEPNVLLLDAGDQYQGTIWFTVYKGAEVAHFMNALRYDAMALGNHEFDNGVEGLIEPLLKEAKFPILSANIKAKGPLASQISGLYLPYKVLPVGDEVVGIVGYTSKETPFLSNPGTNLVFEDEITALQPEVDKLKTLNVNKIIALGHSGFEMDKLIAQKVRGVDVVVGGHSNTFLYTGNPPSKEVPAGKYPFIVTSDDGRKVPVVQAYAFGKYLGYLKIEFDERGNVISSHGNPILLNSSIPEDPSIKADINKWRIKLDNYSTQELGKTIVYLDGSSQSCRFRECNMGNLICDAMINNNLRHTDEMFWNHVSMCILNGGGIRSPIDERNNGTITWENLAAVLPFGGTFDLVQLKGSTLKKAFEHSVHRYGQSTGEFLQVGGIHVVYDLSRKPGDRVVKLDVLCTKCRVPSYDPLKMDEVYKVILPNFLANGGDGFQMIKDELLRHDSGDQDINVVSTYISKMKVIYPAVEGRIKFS
Procedure: In order to investigate the binding activity of the CD73×PD-1 bispecific antibody to human CD73 and PD-1, the binding assay at the cellular level was performed using a CHO-K1 cell strain overexpressing human CD73 or PD-1 (CHO-K1-hCD73 or CHO-K1-hPD-1). Briefly, the CHO-K1-hCD73 and CHO-K1-hPD-1 cells were digested and resuspended in an F-12K complete medium, and the cell density was adjusted to 1×10⁶ cells/mL. The cells were seeded in a 96-well V-bottom plate (Corning, #3894) at 100 μL/well, followed by the addition at 100 μL/well and centrifugation at 500 g at 4° C. for 5 min, and then the supernatant was discarded. Antibodies were 3-fold diluted to a maximum final concentration of 50 nM, and a total of 8 concentrations were set. 100 μL of the diluted antibodies was added to each well, and the cells were incubated at 4° C. for 1 h away from light. Thereafter, the cells in each well were rinsed twice with 100 μL of pre-cooled PBS, and centrifuged at 500 g at 4° C. for 5 min, and then the supernatant was discarded. Then 100 μL of a fluorescent secondary antibody (goat anti-human IgG (H+L) secondary antibody, Alexa Fluor® 488 conjugate, Invitrogen, Cat #A11013, 1:1000) was added to each well. […] Finally, the cells in each well were resuspended in 200 μL of pre-cooled PBS, and the fluorescence signal values were read using a BD FACS CANTOII.

T1 sequence (B0LAJ3 entry or part of it limits assumed): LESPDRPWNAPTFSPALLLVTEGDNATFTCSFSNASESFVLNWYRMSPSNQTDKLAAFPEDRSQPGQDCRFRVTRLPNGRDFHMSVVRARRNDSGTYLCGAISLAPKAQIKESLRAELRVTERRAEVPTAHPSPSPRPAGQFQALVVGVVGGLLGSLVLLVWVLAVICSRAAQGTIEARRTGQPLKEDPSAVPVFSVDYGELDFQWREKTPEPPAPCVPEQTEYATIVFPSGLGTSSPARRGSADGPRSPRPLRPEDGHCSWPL

EC50 [1]: 0.998 nM | MFI Maximum [1]: 19100 | EC50 [2]: 0.039 nM | OD Maximum [2]: 2.86
B1: PR000150 (pembrolizumab analog) (antibody, human IgG4 S228P, kappa, V domains shown)
VH: QVQLVQSGVEVKKPGASVKVSCKASGYTFTNYYMYWVRQAPGQGLEWMGGINPSNGGTNFNEKFKNRVTLTTDSSTTTAYMELKSLQFDDTAVYYCARRDYRFDMGFDYWGQGTTVTVSS
VL: EIVLTQSPATLSLSPGERATLSCRASKGVSTSGYSYLHWYQQKPGQAPRLLIYLASYLESGVPARFSGSGSGTDFTLTISSLEPEDFAVYYCQHSRDLPLTFGGGTKVEIKR
notes: Anti-PD-1 positive control; also called positive control antibody pembrolizumab

EC50 [3]: 17 nM | MFI Maximum [3]: 1.05e+06 | EC50 [4]: 0.152 nM | OD Maximum [4]: 2.85 | EC50 [2]: 0.252 nM | OD Maximum [2]: 2.88 | IC50 [5]: 16.2 nM | Maximum inhibition rate (%) [5]: 96.2%
B2: PR002479 (antibody, human IgG1, V domains shown)
VH: EVQLVETGGGLIQPGGSLRLSCAASGFNVSSHYMSWVRQAPGKGLEWVSIIHSGGSTYYADSVKGRFTISRDNSKNRLYLQMNSLRAEDTAVYYCARATAVAEENGYNYPFNYWGQGTLVTVSS
notes: Heavy-chain-only antibody (HCAb), human IgG1 Fc; two heavy chains, no light chain; also called R4004P551D6

EC50 [6]: 1.45 nM
B3: PR000846 (antibody, human IgG1, kappa, L234A L235A, V domains shown)
VH: QVQLVESGGGVAQPGRSLSLSCAASGFTFSDYGMHWVRQAPGKGLEWVALIWYDASFEYYADSVKGRFSISRDNSKNTLYLQMNSLRAEDTAVYYCVRDAQWGSRLDYWGQGTLVTVSS
VL: KIVMTQSPATLSLSPGERATLSCRASQSVSRYLAWYQQKPGQAPRLLIYDASNRATGIPARFSGSGSGTDFTLTISSLEPEDFAVYYCQQRSNWIFTFGPGTKVDIKR
notes: Parent monoclonal antibody of the CD73 end of PR003568; also called anti-CD73 IgG monoclonal antibody PR000846; anti-CD73 H2L2 antibody PR000846

Reference: patent publication US20240034792A1 (HARBOUR BIOMED SHANGHAI, published 2024)
